Measurements taken from article PMC10941009, “Structural basis for specific DNA sequence recognition by the transcription factor NFIL3” (The Journal of Biological Chemistry, 2024).

Experiments:
[1] = target: the molecule itself; assay: SEC; Superdex 200 10/300 GL, 20 mM Tris pH 7.5, 150 mM NaCl; NFIL3 bZIP domain WT 2 mg/ml apo and NFIL3 mutants, against protein standard
NFIL3 bZIP (long) = target: T1, NFIL3 bZIP (long) (human, UniProt Q16649 65-161); assay: ITC; ITC: 20 mM Tris pH 7.5, 150 mM NaCl, 25 °C; EMSA: same buffer, 4 °C, 6% native gel in 0.5x TBE; settings: protein: recombinant, tags: His6-SUMO removed by TEV, chain copies: 2, blunt
T1 sequence: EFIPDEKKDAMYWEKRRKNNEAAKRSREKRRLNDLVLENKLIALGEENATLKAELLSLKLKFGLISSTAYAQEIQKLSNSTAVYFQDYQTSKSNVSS

NFIL3 bZIP (short) = target: T2, NFIL3 bZIP (short) (human, UniProt Q16649 65-136); assay: as above; settings: protein: recombinant; tags: His6-SUMO removed by TEV; chain copies: 2; blunt
T2 sequence: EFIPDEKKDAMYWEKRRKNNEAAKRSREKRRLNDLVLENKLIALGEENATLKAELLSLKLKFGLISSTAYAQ

C/EBPα bZIP = C/EBPα bZIP (human, UniProt P49715 281-340); assay: as above; settings: protein: recombinant; tags: His6-SUMO removed by TEV; chain copies: 2; blunt
C/EBPβ bZIP = C/EBPβ bZIP (human, UniProt P17676 259-336); assay: as above; settings: protein: recombinant; tags: His6-SUMO removed by TEV; chain copies: 2; blunt
C/EBPζ bZIP = C/EBPζ bZIP (human, UniProt P35638 88-162); assay: as above; settings: protein: recombinant; tags: His6-SUMO removed by TEV; chain copies: 2; blunt
[2] = target: the molecule itself; assay: SEC; gel filtration chromatography of the recombinant C/EBPζ bZIP domain; conditions not told for this protein

Sequence of C/EBPα bZIP (P49715 281-340): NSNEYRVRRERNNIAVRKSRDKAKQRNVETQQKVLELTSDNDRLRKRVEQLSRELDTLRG
Sequence of C/EBPβ bZIP (P17676 259-336): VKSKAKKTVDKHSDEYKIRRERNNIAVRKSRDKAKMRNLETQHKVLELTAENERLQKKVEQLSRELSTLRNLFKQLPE

B1: NFIL3 bZIP domain (aa 65-161) (domain or fragment, human, UniProt Q16649 65-161, looked up)
chain: EFIPDEKKDAMYWEKRRKNNEAAKRSREKRRLNDLVLENKLIALGEENATLKAELLSLKLKFGLISSTAYAQEIQKLSNSTAVYFQDYQTSKSNVSS
notes: human NFIL3, bZIP domain, residues 65-161 (canonical bZIP helix aa 73-126 and an extra short helix aa 131-146); The methods of the size-exclusion run say only 'NFIL3 bZIP domain WT'; also called E4BP4; nuclear factor interleukin-3 regulated protein; source: E. coli BL21 (DE3), purified (Ni-NTA, TEV, anion exchange, gel filtration); not shown: His6, N-terminal, cleaved; SUMO, N-terminal, cleaved
stoichiometry N [1]: 2

B2: NFIL3 bZIP domain N112D mutant (domain or fragment, human, UniProt Q16649 65-161, looked up)
chain: EFIPDEKKDAMYWEKRRKNNEAAKRSREKRRLNDLVLENKLIALGEEDATLKAELLSLKLKFGLISSTAYAQEIQKLSNSTAVYFQDYQTSKSNVSS
notes: human NFIL3, bZIP domain, residues 65-161 with N112D; also called NFIL3 (N112D); source: E. coli BL21 (DE3), purified as the wild-type protein; not shown: His6, N-terminal, cleaved; SUMO, N-terminal, cleaved
stoichiometry N [1]: 2

B3: TTAaGTAA (dsDNA)
DNA 1: CATTAAGTAATG
DNA 2: CATTACTTAATG
Kd (NFIL3 bZIP (long)): 120 ± 10 nM

B4: TTgCGTAA (dsDNA)
DNA 1: CATTGCGTAATG
DNA 2: CATTACGCAATG
Kd (NFIL3 bZIP (long)): 180 ± 20 nM

B5: TTACGTAA (dsDNA)
DNA 1: CATTACGTAATG
DNA 2: CATTACGTAATG
Kd (NFIL3 bZIP (short)): 52 ± 17 nM
Kd (NFIL3 bZIP (long)): 42 ± 7 nM
Kd (C/EBPα bZIP): 350 ± 30 nM
Kd (C/EBPβ bZIP): 18 ± 3 nM
binding result (C/EBPζ bZIP): no binding

B6: TcACGTAA (dsDNA)
DNA 1: CATCACGTAATG
DNA 2: CATTACGTGATG
Kd (NFIL3 bZIP (long)): 1660 ± 110 nM

B7: C/EBPζ bZIP domain (aa 88-162) (domain or fragment, human, UniProt P35638 88-162, looked up)
chain: SSLAQEEEEEDQGRTRKRKQSGHSPARAGKQRMKEKEQENERKVAQLAEENERLKQEIERLTREVEATRRALIDR
notes: human C/EBPζ, bZIP domain, residues 88-162; source: E. coli BL21 (DE3), purified (Ni-NTA, TEV, anion exchange, gel filtration); not shown: His6, N-terminal, cleaved; SUMO, N-terminal, cleaved
stoichiometry N [2]: 2

B8: T/G mismatch TTAt (dsDNA)
DNA 1: CATTATGTAATG
DNA 2: CATTACGTAATG
modifications: T/G mismatch at position 6 of strand 1
Kd (NFIL3 bZIP (long); one T/G mismatch): 290 ± 30 nM

B9: cTACGTAA (dsDNA)
DNA 1: CACTACGTAATG
DNA 2: CATTACGTAGTG
Kd (NFIL3 bZIP (long)): 2430 ± 150 nM

B10: ccgCGTAA (dsDNA)
DNA 1: CACCGCGTAATG
DNA 2: CATTACGCGGTG
Kd (NFIL3 bZIP (long)): 6890 ± 340 nM

B11: TTAmCGTAA (dsDNA)
DNA 1: CATTACGTAATG
DNA 2: CATTACGTAATG
modifications: 5-methyl-C at position 6 of the printed strand; second strand not printed (palindrome, methylation of it not stated)
Kd (NFIL3 bZIP (long)): 590 ± 89 nM

B12: TTGCGCAA (dsDNA)
DNA 1: CATTGCGCAATG
DNA 2: CATTGCGCAATG
Kd (NFIL3 bZIP (long)): 810 ± 70 nM
Kd (C/EBPα bZIP): 480 ± 70 nM
Kd (C/EBPβ bZIP): 69 ± 9 nM
binding result (C/EBPζ bZIP): no binding

B13: TTAtGTAA (dsDNA)
DNA 1: CATTATGTAATG
DNA 2: CATTACATAATG
Kd (NFIL3 bZIP (long)): 520 ± 30 nM

B14: mutated flanking DNA (dsDNA)
DNA 1: CGTTACGTAATG
DNA 2: CATTACGTAACG
Kd (NFIL3 bZIP (long)): 67 ± 14 nM

B15: TGATGTAA (dsDNA)
DNA 1: GATGATGTAATC
DNA 2: GATTACATCATC
binding result (C/EBPζ bZIP): no binding
